The values that follow come from publication PMC11892739, “Site-specific molecular glues for the 14-3-3/Tau pS214 protein–protein interaction via reversible covalent imine tethering” (RSC Medicinal Chemistry, 2025).

The target of one experiment is T1, 14-3-3ζ/Tau pS2 peptide (Homo sapiens, UniProt P63104).
T1 construct: made in house; host or cells: NiCo21 (DE3) E. coli
T1 sequence (P63104 1-245): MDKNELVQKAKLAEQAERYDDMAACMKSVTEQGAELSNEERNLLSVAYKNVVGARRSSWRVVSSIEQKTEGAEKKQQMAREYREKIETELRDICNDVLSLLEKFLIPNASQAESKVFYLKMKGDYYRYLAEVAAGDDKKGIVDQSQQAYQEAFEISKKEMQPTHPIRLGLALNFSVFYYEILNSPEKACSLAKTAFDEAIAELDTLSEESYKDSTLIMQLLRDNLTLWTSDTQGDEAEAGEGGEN
The experiment in a line: Differential scanning fluorimetry of 14-3-3 with Tau pS2 peptide and compounds. Conditions: 10-fold excess of Tau pS2 peptide relative to 14-3-3ζ. It is filed as binding. How it is done:
Fig. 3 a Dose–response fluorescence anisotropy data of compound titrations to 10 nM FITC-labeled Tau pS2 peptide and 100 nM 14-3-3ζ. […] Mean of three individually performed experiments (see ESI ^† Fig. S8 for the protein titrations). e Differential scanning fluorimetry assay results. Identified melting temperatures (Tm) of 14-3-3γ alone (2.5 μM) and in the presence of Tau pS2 peptide (25 μM) and additionally with selected compounds (75 μM).
As an orthogonal method to profile the PPI stabilizing activity of selected compounds, differential scanning fluorimetry (DSF) assays were performed (Fig. 3e). […] Upon addition of compounds (1, 11, 13–14, and 20–22) to this PPI complex (30-fold compared to 14-3-3ζ), an additional increase in melting temperature between 0.9 °C and 2.1 °C was observed relative to the binary 14-3-3ζ/Tau pS2 peptide system. These observations are in agreement with the stabilization observed in the FA data and strongly testify to the molecular glue effect of our compound, by enhancing the stability of the PPI complex. […]
chromatography (HisTrap high performance cartridges, Cytiva). Typically two 5 mL columns were used for a 2 L culture in which the lysate was loaded on the column, washed with 10 CV wash buffer (50 mM Hepes, pH 8.0, 300 mM NaCl, 25 mM imidazole, 2 mM βME), and eluted with several fractions (2-4 CV) of elution buffer (50 mM Hepes, pH 8.0, 300 mM NaCl, 250 mM imidazole, 2 mM βME). Fractions containing the 14-3-3 protein were combined and dialyzed into 25 mM HEPES pH 8.0, 200 mM NaCl, 10 mM MgCl2, 2 mM βME, followed by dialysis into 25 mM HEPES, 100 mM NaCl, 10 mM MgCl2, 500 μM TCEP (adjusted to pH 8.0). Dialyzed protein was concentrated to ∼40 mg/mL, analyzed by Q -Tof LC/MS, and aliquots were flash -frozen for storage at −80 °C. For 14 -3-3σ∆c, 1 mg TEV per 100 mg purified protein was added to the dialysis to remove the purification tag. The cleaved sample was then again loaded on a 10 mL Ni-NTA column to separate the cleaved product from the expression tag and residual uncleaved protein. The flowthrough was loade d on a Superdex 75 pg 16/60 size exclusion column (GE Life Sciences) using 25 mM HEPES, 100 mM NaCl, 10 mM MgCl2, 500 μM TCEP (adjusted to pH = 8.0) as running buffer. Fractions containing the 14 -3-3 protein were pooled and concentrated to ∼60 mg/mL, analyzed Q -Tof LC/MS, and aliquots were flash -frozen for storage at −80°C. […]
The peptide screen was performed in a similar way as the 14-3-3ζ titration in the precence of compound.
14-3-3ζ was titrated in a 2-fold dilution series (starting at 400 µM 14-3-3ζ) to 100 nM of fluorescein-labeled peptides and 250 µM compound 18 (1% DMSO) in FA buffer (10 mM HEPES pH 7.4, 150 mM […]
Data shown is the average of a scientific triplicate.
Differential Scanning Fluorimetry (DSF)
DSF was performed using 40 µl samples containing 2.5 µM 14 -3-3ζ, 25 µM Tau peptide (Tau pS2, Tau pS214 or Tau pS324), […] (1% DMSO) and 5x ProteoOrange (Lumiprobe, 5000x stock in DMSO) in 10 mM HEPES, 150 mM NaCl, 50 µM TCEP (pH 7.4). The samples were heated from 35 °C to 79°C at a rate of 0.3 °C per 15 s in a C FX96 Touch Real-Time PCR Detection System (Bio -Rad). Fluorescence intensity was determined using excitation ( λem=525/20 nm) and emission ( λex=570/20 nm) filters.
Based on these melting curves, the negative derivative melting curve is obtained from which the melting temperature Tm was determined. All described melting temperatures are based on two or three independent experiments, from which the average and standard deviations were determined.
X-ray crystallography data collection and refinement
For x-ray crystallography, a C-terminally truncated 14-3-3σ protein (truncated after T231 to reduce flexibility) was used. This 14-3-3σ∆C was preincubated with Tau pS214 in complexation buffer (20 mM HEPES pH 7.5, 2 mM MgCl2 and 100 μM TCEP) in a 1:1.5 molar stoichiometry (protein:peptide) at a final protein concentration of 10.0 mg/mL. […]
For orientation: DSF heats the sample and reads unfolding from a dye or from intrinsic fluorescence.

For another experiment, the target named is 14-3-3ζ. More on the design: method as in doi:10.1101/2024.03.15.585148. Conditions: FA assay, binary complex; read-out: KD of bivalent Tau pS2 peptide to 14-3-3ζ; cited from earlier work.

Square brackets hold non-standard residues; d marks the D form. Ends that are not written are not given here. pS = N[C@@H](COP(=O)(O)O)C(=O)O

“Tau pS2 peptide: bivalent Tau peptide phosphorylated at S214 + S324: SRTP{pS}LPTPPTREGGGSGGGSGGGVTSKCG{pS}LGNIHHK (chain 1 SRTP[pS]LPTPPTREGGGSGGGSGGGVTSKCG[pS]; numbers in words are those of the source; also: chains 1 and 2 are one continuous peptide joined through pS324) [reference compound]”: in the experiment with 14-3-3ζ/Tau pS2 peptide, the “ΔTm, increase of 14-3-3 melting temperature compared to apo-14-3-3ζ” value was about 0.6 °C. Besides, the Kd on 14-3-3ζ was 945 ± 70 nM.
